Assay results taken from publication PMC3507807, “DNA binding specificity of ATAF2, a NAC domain transcription factor targeted for degradation by Tobacco mosaic virus” (BMC Plant Biology, 2012).

Experiments:
[1] = target: T1, ATAF2 (Arabidopsis thaliana) (UniProt Q9C598); assay: EMSA; settings: EMSA: 20 mM Tris-HCl pH 8.0, 60 mM KCl, 5 mM MgCl2, 100 ug/ml BSA, 5% glycerol, 1 mM DTT, 0.5 ug poly(dI-dC) in 10 ul, 100-300 fmol probe, 25 C 30 min
T1 sequence: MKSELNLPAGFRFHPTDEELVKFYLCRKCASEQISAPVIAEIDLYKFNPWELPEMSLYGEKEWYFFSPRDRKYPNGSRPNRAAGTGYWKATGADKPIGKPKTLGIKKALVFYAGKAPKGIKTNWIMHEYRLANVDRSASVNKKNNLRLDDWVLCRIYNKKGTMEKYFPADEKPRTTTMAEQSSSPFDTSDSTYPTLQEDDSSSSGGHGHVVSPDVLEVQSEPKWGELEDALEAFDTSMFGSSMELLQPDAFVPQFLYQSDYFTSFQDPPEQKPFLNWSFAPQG

ATAF2 = target: T2, ATAF2 (Arabidopsis thaliana, UniProt Q9C598 1-283); assay: EMSA; binding not dramatically reduced; EMSA: 20 mM Tris-HCl pH 8.0, 60 mM KCl, 5 mM MgCl2, 100 ug/ml BSA, 5% glycerol, 1 mM DTT, 0.5 ug poly(dI-dC) in 10 ul, 100-300 fmol probe, 25 C 30 min; 5% native PAGE, 0.5X TBE. Footprint: same binding buffer, 10 fmol probe; settings: protein: recombinant; tags: N-terminal His6 (pTrcHisA); chain copies: 2; label: 5'-32P
T2 sequence: T1 sequence

[2] = target: the molecule itself; assay: SEC; Superdex-200 HR 10/30; ~160 ug purified protein, incubated 20 min at room temperature and run in 25 mM Tris-HCl pH 7.5, 10% glycerol, 500 mM NaCl, 0.5 mM EDTA; fractions checked by SDS-PAGE; mass markers 670, 158, 44 and 17 kDa

Molecule: TCAGAAGAGCAAGTCCCCTAAAACACATAT (double strand) [C2 (nt 13-18 TCAAAT to GTCCCC)]
- binding signal ([1]; reduction >85%): < 15 % of WT

Molecule: TCCAAAGAGCAATCAAATTAAAACACATAT (double strand) [M1 (nt 3-4 AG to CA)]
- binding signal ([1]; stated as 91% reduction): 9 % of WT

Molecule: TCAGAAGAGCAAGAAAATTAAAACACATAT (double strand) [M3 (nt 13-14 TC to GA)]
- binding signal ([1]; stated as 47% reduction): 53 % of WT

Molecule: TCAGAAGAGCAATCAAATTAAAACACATAT (double strand) [30-bp ATAF2 binding sequence (wild type)]
- binding signal [1]: 100 % of WT

Molecule: TCAGAAGAGCAATCAAATTAATTTTTTTAT (double strand) [C3 (nt 22-27 AACACA to TTTTTT)]
- binding signal ([1]; reduction >85%): < 15 % of WT

Molecule: TCTTTTTAGCAATCAAATTAAAACACATAT (double strand) [C1 (nt 3-7 AGAAG to TTTTT)]
- binding signal ([1]; reduction >85%): < 15 % of WT

Molecule: TCAGAAGAGCAATCAAACCAAAACACATAT (double strand) [M4 (nt 18-19 TT to CC)]
- binding signal ([1]; stated as 87% reduction): 13 % of WT

Molecule: TCAGAAGAGCAATCAAATTAAAGAACATAT (double strand) [M5 (nt 23-24 AC to GA)]
- binding signal ([1]; stated as 96% reduction): 4 % of WT

B1: M6 (dsDNA)
DNA 1: TCAGAAGAGCAATCAAATTAAAACACACCT
DNA 2: AGGTGTGTTTTAATTTGATTGCTCTTCTGA
- binding result (ATAF2): binds

B2: ATAF2 NAC domain (ATAF2-165, 1 aa to 165 aa) (domain or fragment, Arabidopsis, UniProt Q9C598 1-165, looked up)
chain: MKSELNLPAGFRFHPTDEELVKFYLCRKCASEQISAPVIAEIDLYKFNPWELPEMSLYGEKEWYFFSPRDRKYPNGSRPNRAAGTGYWKATGADKPIGKPKTLGIKKALVFYAGKAPKGIKTNWIMHEYRLANVDRSASVNKKNNLRLDDWVLCRIYNKKGTMEK
notes: ATAF2 (AT5g08790), Arabidopsis thaliana NAC domain transcription factor, truncated version containing only the NAC domain, residues 1-165; source: E. coli BL21 (+), pTrcHisA, purified (Ni-NTA)
- stoichiometry N [2]: 2

B3: M2 (dsDNA)
DNA 1: TCAGAAGTACAATCAAATTAAAACACATAT
DNA 2: ATATGTGTTTTAATTTGATTGTACTTCTGA
- binding result (ATAF2): binds
